Molecular target: human HER4 expressed on HEK293 cells (human) (UniProt Q15303)
Test: flow cytometry, HEK293 HER4 overexpressing cells, PE-A B2-A channel

human HER4 expressed on HEK293 cells (human), sequence (Q15303 26-1308): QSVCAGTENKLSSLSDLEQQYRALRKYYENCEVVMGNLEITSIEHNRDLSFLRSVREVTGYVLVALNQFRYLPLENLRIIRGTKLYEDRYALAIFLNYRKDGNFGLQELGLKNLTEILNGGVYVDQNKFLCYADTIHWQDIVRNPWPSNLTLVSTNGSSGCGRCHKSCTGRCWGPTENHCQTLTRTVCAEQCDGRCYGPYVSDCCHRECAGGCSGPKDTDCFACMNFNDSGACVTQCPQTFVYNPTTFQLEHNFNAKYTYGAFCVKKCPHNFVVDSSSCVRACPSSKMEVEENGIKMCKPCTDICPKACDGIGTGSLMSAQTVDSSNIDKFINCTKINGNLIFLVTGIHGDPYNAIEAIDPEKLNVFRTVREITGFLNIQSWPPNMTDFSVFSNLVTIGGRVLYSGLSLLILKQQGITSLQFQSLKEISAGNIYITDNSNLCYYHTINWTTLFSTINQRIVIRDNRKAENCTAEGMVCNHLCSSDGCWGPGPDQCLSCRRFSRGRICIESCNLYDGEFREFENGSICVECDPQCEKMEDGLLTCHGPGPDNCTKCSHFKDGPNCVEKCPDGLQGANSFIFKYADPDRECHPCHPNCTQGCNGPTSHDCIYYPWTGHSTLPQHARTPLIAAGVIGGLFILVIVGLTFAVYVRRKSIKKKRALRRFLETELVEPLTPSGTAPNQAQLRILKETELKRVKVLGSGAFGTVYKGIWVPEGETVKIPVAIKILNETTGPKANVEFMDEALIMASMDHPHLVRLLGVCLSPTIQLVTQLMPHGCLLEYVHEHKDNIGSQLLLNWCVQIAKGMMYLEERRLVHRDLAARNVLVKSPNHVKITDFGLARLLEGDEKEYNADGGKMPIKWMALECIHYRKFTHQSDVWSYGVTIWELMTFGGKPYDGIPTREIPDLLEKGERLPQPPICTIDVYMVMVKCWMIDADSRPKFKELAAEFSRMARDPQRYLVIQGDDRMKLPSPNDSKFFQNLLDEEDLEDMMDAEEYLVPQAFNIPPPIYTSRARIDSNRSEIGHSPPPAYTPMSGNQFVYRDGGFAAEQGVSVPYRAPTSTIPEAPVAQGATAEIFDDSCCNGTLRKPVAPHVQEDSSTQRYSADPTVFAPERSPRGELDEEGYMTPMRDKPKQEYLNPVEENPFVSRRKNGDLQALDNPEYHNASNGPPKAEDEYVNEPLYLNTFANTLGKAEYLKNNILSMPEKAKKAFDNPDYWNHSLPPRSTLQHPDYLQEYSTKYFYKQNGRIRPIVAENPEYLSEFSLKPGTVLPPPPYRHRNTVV

B1: MM-121 (antibody, INN chains, looked up, human IgG2, V domains shown)
VH: EVQLLESGGGLVQPGGSLRLSCAASGFTFSHYVMAWVRQAPGKGLEWVSSISSSGGWTLYADSVKGRFTISRDNSKNTLYLQMNSLRAEDTAVYYCTRGLKMATIFDYWGQGTLVTVSS
VL: QSALTQPASVSGSPGQSITISCTGTSSDVGSYNVVSWYQQHPGKAPKLIIYEVSQRPSGVSNRFSGSKSGNTASLTISGLQTEDEADYYCCSYAGSSIFVIFGGGTKVTVL
modifications: IgG2/kappa
  % Positive for HER4: 8.73%

— patent publication US20210155712A1
